Earlier results in PMC10746543, “Design principles for cyclin K molecular glue degraders” (Nature Chemical Biology, 2023).

Target: CDK12-cyclin K (Homo sapiens) (UniProt Q9NYV4)
Sequence (Q9NYV4 whole entry, chain 1 of 2): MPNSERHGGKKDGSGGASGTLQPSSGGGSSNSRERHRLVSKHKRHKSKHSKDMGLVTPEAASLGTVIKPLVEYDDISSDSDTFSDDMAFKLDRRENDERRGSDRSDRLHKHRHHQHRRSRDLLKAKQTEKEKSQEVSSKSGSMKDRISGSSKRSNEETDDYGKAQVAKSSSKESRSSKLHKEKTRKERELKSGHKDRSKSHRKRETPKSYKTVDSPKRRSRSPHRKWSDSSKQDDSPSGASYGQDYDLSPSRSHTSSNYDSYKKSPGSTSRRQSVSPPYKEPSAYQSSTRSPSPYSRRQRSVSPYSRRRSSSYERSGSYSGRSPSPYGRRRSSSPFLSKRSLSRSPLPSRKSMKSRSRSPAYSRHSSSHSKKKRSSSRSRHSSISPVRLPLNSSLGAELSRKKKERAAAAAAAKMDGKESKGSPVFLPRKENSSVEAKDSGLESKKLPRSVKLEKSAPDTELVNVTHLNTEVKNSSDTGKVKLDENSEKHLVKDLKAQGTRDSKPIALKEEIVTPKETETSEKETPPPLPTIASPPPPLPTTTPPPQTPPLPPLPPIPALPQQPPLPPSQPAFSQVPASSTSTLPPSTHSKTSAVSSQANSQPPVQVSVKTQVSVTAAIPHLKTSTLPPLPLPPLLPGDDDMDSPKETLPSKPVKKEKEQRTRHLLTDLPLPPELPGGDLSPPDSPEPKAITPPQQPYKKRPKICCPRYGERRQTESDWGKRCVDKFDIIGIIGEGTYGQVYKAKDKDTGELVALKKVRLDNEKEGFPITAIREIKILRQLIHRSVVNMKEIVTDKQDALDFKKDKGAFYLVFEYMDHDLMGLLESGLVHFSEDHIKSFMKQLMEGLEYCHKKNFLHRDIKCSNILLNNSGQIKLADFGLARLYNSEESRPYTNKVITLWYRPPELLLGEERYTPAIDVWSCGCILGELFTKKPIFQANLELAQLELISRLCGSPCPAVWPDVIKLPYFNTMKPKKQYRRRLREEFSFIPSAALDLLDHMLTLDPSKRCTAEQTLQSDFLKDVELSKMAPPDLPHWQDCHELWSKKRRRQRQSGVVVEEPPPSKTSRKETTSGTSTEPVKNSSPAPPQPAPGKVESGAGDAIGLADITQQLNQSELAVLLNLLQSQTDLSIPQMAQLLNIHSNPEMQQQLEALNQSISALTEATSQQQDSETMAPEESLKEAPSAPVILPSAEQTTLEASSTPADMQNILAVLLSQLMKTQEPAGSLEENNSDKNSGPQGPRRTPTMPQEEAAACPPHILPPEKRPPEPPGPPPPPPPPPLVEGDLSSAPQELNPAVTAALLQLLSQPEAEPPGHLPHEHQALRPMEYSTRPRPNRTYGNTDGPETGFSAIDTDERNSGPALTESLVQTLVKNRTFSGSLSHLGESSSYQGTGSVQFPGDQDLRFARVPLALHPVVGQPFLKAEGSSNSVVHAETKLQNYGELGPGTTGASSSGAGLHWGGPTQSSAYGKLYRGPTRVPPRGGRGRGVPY
Sequence (O75909 whole entry, chain 2 of 2, further chain): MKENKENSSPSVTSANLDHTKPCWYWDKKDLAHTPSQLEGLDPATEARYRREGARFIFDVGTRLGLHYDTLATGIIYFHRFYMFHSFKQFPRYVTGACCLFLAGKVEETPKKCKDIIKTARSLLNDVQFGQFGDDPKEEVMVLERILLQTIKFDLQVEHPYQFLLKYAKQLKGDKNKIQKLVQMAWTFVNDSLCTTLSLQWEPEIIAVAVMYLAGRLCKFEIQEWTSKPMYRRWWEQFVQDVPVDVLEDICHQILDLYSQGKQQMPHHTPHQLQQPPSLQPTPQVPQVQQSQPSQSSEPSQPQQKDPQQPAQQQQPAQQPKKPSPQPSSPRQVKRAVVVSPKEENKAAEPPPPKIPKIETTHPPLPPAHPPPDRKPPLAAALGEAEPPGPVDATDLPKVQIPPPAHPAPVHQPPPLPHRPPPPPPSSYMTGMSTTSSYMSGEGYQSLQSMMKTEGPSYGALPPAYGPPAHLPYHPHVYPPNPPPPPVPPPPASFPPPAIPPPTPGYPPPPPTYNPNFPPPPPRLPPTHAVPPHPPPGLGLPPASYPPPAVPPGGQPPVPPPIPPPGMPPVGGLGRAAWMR

Sequence of DDB1 (Q16531 2-1140): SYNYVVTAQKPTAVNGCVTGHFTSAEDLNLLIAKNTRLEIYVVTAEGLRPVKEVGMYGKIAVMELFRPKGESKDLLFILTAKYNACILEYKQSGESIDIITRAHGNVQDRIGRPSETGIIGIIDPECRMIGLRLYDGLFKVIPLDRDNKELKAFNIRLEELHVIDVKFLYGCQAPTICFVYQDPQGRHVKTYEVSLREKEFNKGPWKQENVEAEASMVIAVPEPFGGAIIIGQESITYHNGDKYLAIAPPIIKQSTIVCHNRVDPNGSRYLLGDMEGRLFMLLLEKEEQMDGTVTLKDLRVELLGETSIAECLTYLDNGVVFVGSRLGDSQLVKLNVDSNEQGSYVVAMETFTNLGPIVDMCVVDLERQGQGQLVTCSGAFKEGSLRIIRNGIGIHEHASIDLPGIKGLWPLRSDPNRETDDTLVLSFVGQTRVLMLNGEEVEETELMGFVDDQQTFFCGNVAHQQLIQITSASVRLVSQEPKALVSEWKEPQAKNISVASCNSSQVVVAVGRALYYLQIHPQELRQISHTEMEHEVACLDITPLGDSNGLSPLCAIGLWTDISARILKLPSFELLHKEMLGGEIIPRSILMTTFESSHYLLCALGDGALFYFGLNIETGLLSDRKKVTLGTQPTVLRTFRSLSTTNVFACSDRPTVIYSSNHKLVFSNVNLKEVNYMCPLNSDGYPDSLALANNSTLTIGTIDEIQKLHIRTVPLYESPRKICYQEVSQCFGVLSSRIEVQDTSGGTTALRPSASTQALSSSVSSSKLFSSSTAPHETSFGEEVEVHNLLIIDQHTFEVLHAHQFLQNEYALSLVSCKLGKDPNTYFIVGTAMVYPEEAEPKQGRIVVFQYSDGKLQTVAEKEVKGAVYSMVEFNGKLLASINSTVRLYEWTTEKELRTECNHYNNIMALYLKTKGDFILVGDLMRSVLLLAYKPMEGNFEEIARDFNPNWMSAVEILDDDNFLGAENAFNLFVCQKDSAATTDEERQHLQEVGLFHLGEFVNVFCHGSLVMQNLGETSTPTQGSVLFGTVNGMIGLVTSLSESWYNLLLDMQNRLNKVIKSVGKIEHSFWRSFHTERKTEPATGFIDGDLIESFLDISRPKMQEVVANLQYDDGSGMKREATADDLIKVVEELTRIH

- Kd: 50 µM
Substance: DDB1 (from UniProt Q16531)
